In assay [1] the target is dissociated S1 protomer (SARS-CoV-2, Wuhan-Hu-1, stabilised). Nature of the assay: cryo-EM structure.
Assay [2] addresses recombinant S1 domain containing B.1.1.7 mutations (SARS-CoV-2 B.1.1.7 (Alpha), strain). The assay is described as follows: BLI.

Here are results for 2 molecules from paper PMC8769934 (Cell Reports, 2022).

B1: N-612-004 Fab (Fab, V domains shown)
VH: EVQLVESGGGLVQPGGSLRLSCAASGFTFSSYYMHWVRQAPGKGLEWVSAISGSGGYTYYADSVKGRFTISRDNSKNTLYLQMNSLRAEDTAVYYCARDRDHAYDWGFDVWGQGTLVTVSS
VL: DIQMTQSPSSLSASVGDRVTITCQASQDISNYLNWYQQKPGKAPKLLIYDASNLETGVPSRFSGSGSGTDFTFTISSLQPEDIATYYCQQWADWPLTFGQGTKVEIK
Regarding B1, the binding result in assay [1] was “binds”.

B2: N-612-004 (IgG1) (antibody, V domains shown)
VH: EVQLVESGGGLVQPGGSLRLSCAASGFTFSSYYMHWVRQAPGKGLEWVSAISGSGGYTYYADSVKGRFTISRDNSKNTLYLQMNSLRAEDTAVYYCARDRDHAYDWGFDVWGQGTLVTVSS
VL: DIQMTQSPSSLSASVGDRVTITCQASQDISNYLNWYQQKPGKAPKLLIYDASNLETGVPSRFSGSGSGTDFTFTISSLQPEDIATYYCQQWADWPLTFGQGTKVEIK
Take B2: the “fold reduction of binding affinity against S1” value in assay [2] is ~3 fold.
